Assay results as given in patent US20250043302A1, “MUTATED HYDROXYPHENYLPYRUVATE DIOXYGENASE POLYPEPTIDE, AND CODING GENE AND USE THEREOF” (BEIJING DABEINONG BIOTECHNOLOGY CO., LTD., priority 2021, published 2025).

What was measured:
Type in all cases: in vivo
[1] = system: Arabidopsis thaliana T1 plants; assay: Topramezone tolerance of transgenic Arabidopsis thaliana T1 plants (spray, bleached leaf area grade, damage score); conditions: Table 10; for Classification and statistics of the grade of pesticide damage Grade 0: number of plants at grade 0; for Classification and statistics of the grade of pesticide damage Grade 1: number of plants at grade 1; for Classification and statistics of the grade of pesticide damage Grade 2: number of plants at grade 2; for Classification and statistics of the grade of pesticide damage Grade 3: number of plants at grade 3; for Scores: pesticide damage score
In short: (§1)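 Damage was assessed by bleaching grade (0 none; 1 <50%; 2 >50%; 3 100% of leaf area) one week after spraying. Sprays on 18-day-old T1 and wild-type plants used field-rate multiples: topramezone 25–200, isoxaflutole 35–280, mesotrione 52.5–420 g ai/ha.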

[2] = system: Arabidopsis thaliana T1 plants; assay: Isoxaflutole tolerance of transgenic Arabidopsis thaliana T1 plants (spray, bleached leaf area grade, damage score); conditions: Table 11; for Classification and statistics of the grade of pesticide damage Grade 0: number of plants at grade 0; for Classification and statistics of the grade of pesticide damage Grade 1: number of plants at grade 1; for Classification and statistics of the grade of pesticide damage Grade 2: number of plants at grade 2; for Classification and statistics of the grade of pesticide damage Grade 3: number of plants at grade 3; for Scores: pesticide damage score;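 on Scores: Weighted damage index from 0 to 100 where higher means more damage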
In short: as §1

[3] = system: Arabidopsis thaliana T1 plants; assay: Mesotrione tolerance of transgenic Arabidopsis thaliana T1 plants (spray, bleached leaf area grade, damage score); set-up: Scores: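 damage score 0-100 computed as Σ(N×S)/(T×M)×100 over grades 0-3 with higher meaning more damage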; conditions: Table 12; for Classification and statistics of the grade of pesticide damage Grade 0: number of plants at grade 0; for Classification and statistics of the grade of pesticide damage Grade 1: number of plants at grade 1; for Classification and statistics of the grade of pesticide damage Grade 2: number of plants at grade 2; for Classification and statistics of the grade of pesticide damage Grade 3: number of plants at grade 3; for Scores: pesticide damage score
In short: as §1

B1: HPPDm-1-02: nucleotide sequence encoding Avena sativa HPPD with A107 deletion+F372A+F383W; vector DBN11780 (nucleic acid)
DNA: ATGCCACCTACTCCAGCTACAGCTACTGGTGCTGCTGCTGCTGCCGTTACTCCTGAGCACGCTGCCAGGTCATTCCCCAGGGTGGTTCGCGTGAACCCCAGATCTGATAGGTTCCCAGTTCTGAGCTTCCACCATGTTGAGCTGTGGTGCGCTGATGCTGCTTCTGCTGCTGGCAGGTTCTCTTTCGCTCTTGGTGCTCCACTCGCTGCTAGATCTGATCTGTCTACAGGAAATAGCGCTCATGCCTCACTCCTGCTTCGCTCAGGTGCTTTGGCCTTCCTCTTCACCGCTCCATATGCTCCCCCACCTCAGGAGGCTACTGCTGCTGCTACAGCCTCCATTCCAAGCTTCTCAGCTGATGCCGCTAGAACCTTCGCTGCTGCTCATGGACTTGCCGTGAGGTCTGTTGGTGTTCGCGTGGCTGATGCTGCTGAGGCTTTCAGAGTTTCCGTTGCCGGCGGAGCTAGGCCAGCTTTCGCTCCTGCTGATTTGGGACATGGTTTCGGCCTGGCTGAGGTTGAGCTTTACGGTGACGTGGTTCTCCGCTTCGTGTCTTACCCAGATGAGACTGACCTGCCTTTCCTTCCCGGCTTCGAGAGAGTTTCCTCTCCTGGTGCCGTGGATTACGGCCTGACAAGGTTCGACCACGTGGTTGGAAACGTTCCCGAGATGGCTCCAGTGATCGATTACATGAAGGGCTTCCTTGGATTCCATGAGTTCGCCGAGTTCACTGCTGAGGACGTGGGAACCACTGAGTCCGGTTTGAACTCTGTGGTTCTCGCCAACAATTCTGAGGCTGTTTTGCTCCCTCTGAATGAGCCTGTGCATGGAACCAAGAGGAGAAGCCAGATTCAAACTTACCTGGAGTACCACGGTGGCCCTGGAGTTCAGCATATCGCCCTTGCTTCTAATGATGTGTTGCGCACACTCAGAGAGATGCGCGCCAGAACCCCCATGGGAGGTTTCGAGTTCATGGCCCCACCACAGGCTAAGTACTACGAGGGCGTTAGAAGGATTGCTGGAGACGTGTTGAGCGAGGAGCAGATCAAGGAGTGCCAAGAGCTGGGTGTTCTTGTGGATAGGGATGACCAGGGCGTTCTGCTTCAAATTGCCACTAAGCCAGTGGGCGACCGCCCTACATTCTGGCTTGAGATGATTCAAAGAATCGGCTGCATGGAGAAGGATGAGGTTGGACAGGAGTACCAAAAGGGCGGATGCGGTGGCTTCGGAAAGGGTAACTTCAGCGAGTTGTTCAAGTCAATCGAGGACTACGAGAAGAGCCTCGAGGTGAAGCAGTCAGTGGTTGCCCAAAAGTCCTGA
modifications: HPPDm-1-02 Nucleotide Sequence
notes: vector DBN11780
[1]; topramezone 100 g ai/ha (4×)
  Resistance evaluation: Highly resistant
  Classification and statistics of the grade of pesticide damage Grade 0: 16
  Classification and statistics of the grade of pesticide damage Grade 1: 0
  Classification and statistics of the grade of pesticide damage Grade 2: 0
  Classification and statistics of the grade of pesticide damage Grade 3: 0
  Scores: 0
[1]; topramezone 200 g ai/ha (8×)
  Resistance evaluation: Highly resistant
  Classification and statistics of the grade of pesticide damage Grade 0: 16
  Classification and statistics of the grade of pesticide damage Grade 1: 0
  Classification and statistics of the grade of pesticide damage Grade 2: 0
  Classification and statistics of the grade of pesticide damage Grade 3: 0
  Scores: 0
[2]; isoxaflutole 140 g ai/ha (2×)
  Resistance evaluation: Highly resistant
  Classification and statistics of the grade of pesticide damage Grade 0: 16
  Classification and statistics of the grade of pesticide damage Grade 1: 0
  Classification and statistics of the grade of pesticide damage Grade 2: 0
  Classification and statistics of the grade of pesticide damage Grade 3: 0
  Scores: 0
[2]; isoxaflutole 280 g ai/ha (4×)
  Resistance evaluation: Highly resistant
  Classification and statistics of the grade of pesticide damage Grade 0: 12
  Classification and statistics of the grade of pesticide damage Grade 1: 4
  Classification and statistics of the grade of pesticide damage Grade 2: 0
  Classification and statistics of the grade of pesticide damage Grade 3: 0
  Scores: 8
[3]; mesotrione 210 g ai/ha (2×)
  Resistance evaluation: Highly resistant
  Classification and statistics of the grade of pesticide damage Grade 0: 16
  Classification and statistics of the grade of pesticide damage Grade 1: 0
  Classification and statistics of the grade of pesticide damage Grade 2: 0
  Classification and statistics of the grade of pesticide damage Grade 3: 0
  Scores: 0
[3]; mesotrione 420 g ai/ha (4×)
  Resistance evaluation: Highly resistant
  Classification and statistics of the grade of pesticide damage Grade 0: 15
  Classification and statistics of the grade of pesticide damage Grade 1: 1
  Classification and statistics of the grade of pesticide damage Grade 2: 0
  Classification and statistics of the grade of pesticide damage Grade 3: 0
  Scores: 2
